This note sets out measurements from paper PMC314469, “Protein Interaction Networks by Proteome Peptide Scanning” (PLoS Biology, 2004).

T1: Boi1 SH3 (BOI1_YEAST), P38041
T1 chain: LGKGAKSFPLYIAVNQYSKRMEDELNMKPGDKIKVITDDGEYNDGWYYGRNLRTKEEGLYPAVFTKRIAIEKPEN

T2: Boi2 SH3 (BOI2_YEAST), P39969
T2 chain: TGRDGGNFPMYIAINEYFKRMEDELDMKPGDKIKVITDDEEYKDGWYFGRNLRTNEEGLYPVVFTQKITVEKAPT

T3: Rvs167 SH3 (RV167_YEAST), P39743
T3 chain: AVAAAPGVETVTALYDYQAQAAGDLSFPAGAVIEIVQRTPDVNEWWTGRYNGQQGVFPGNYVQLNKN

T4: Yfr024 SH3 (LSB3_YEAST), P43603
T4 chain: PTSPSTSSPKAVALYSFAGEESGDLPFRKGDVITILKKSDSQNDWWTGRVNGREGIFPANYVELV

T5: Yhr016c SH3 (YSC84_YEAST), P32793
T5 chain: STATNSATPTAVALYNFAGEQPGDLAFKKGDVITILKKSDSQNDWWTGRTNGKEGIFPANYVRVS

For one assay, the target named is T1, Boi1 SH3 (BOI1_YEAST), P38041. The experiment in a line: SPOT array.
For APLPPQPRKHDKTP [YBL105C 587-600], the normalised SPOT signal, Boehringer light units (BLU); mean over the file's lines of this peptide worked out at 217.
Take ASYPLTPRRYVPED [YLR244C 90-103]: the normalised SPOT signal, Boehringer light units (BLU); mean over the file's lines of this peptide was 2830.
With AQRPRGPQRGKDIK [YNL064C 104-117], the normalised SPOT signal, Boehringer light units (BLU); mean over the file's lines of this peptide was 119.
Regarding AMTPFSPRKSHINN [YNL269W 98-111], the normalised SPOT signal, Boehringer light units (BLU); mean over the file's lines of this peptide was 642.
Same read-out and setting: to AVLPIEPMKIKGTT [YNL140C 149-162] belongs 98.3; to ATVPSAPYRKQIIS [YAR002W 11-24], 30.5.
The same measure, in the same setting: to SDFPYDPFKVMRQN [YKR061W 225-238] belongs 41.4; to ASKPSVPPRNYFSK [YIL108W 577-590], 1130; to APAPLDPFKTGGNN [YBL007C 849-862], 123.
On the same count and under the same terms, to ATRPSSPMRHKSIS [YAR019C 585-598] belongs 168; to SGFPLLPSKRGVTA [YBL095W 165-178], 100.
Molecule ARDPILPYRLVKDR [YHL040C 345-358] showed a normalised SPOT signal, Boehringer light units (BLU); mean over the file's lines of this peptide of 322.
On the same count and under the same terms, to SDFPYDPFRVMRLK [YJL139C 225-238] belongs 330; to SIIPPLPDKKVFQY [YJL036W 96-109], 40.2.
Same read-out and setting: then AVDPENPKKLASKF [YCR023C 384-397], with 74.5.
On the same count and under the same terms, then APTPPAPSRSEKLH [YBR108W 727-740], with 152; and ANLPNRPKRGEGIN [YMR047C 1035-1048], with 145.
ATTPAIPTKSDEAE [YGR162W 364-377] gave a normalised SPOT signal, Boehringer light units (BLU); mean over the file's lines of this peptide of 70.8.
As to ASMPRVPLKIVLKD [YIL078W 68-81], the normalised SPOT signal, Boehringer light units (BLU); mean over the file's lines of this peptide came out at 101.

The target in the next assay is T2, Boi2 SH3 (BOI2_YEAST), P39969. Description: SPOT array.
The molecule APLPPQPRKHDKTP [YBL105C 587-600] returned a normalised SPOT signal, Boehringer light units (BLU); mean over the file's lines of this peptide of 57.8.
Still for that read-out and setting: to ASYPLTPRRYVPED [YLR244C 90-103] belongs 23400.
AQRPRGPQRGKDIK [YNL064C 104-117] gave a normalised SPOT signal, Boehringer light units (BLU); mean over the file's lines of this peptide of 73.2.
The same measure, in the same setting: to AMTPFSPRKSHINN [YNL269W 98-111] belongs 884; to AVLPIEPMKIKGTT [YNL140C 149-162], 37.
ATVPSAPYRKQIIS [YAR002W 11-24]: the normalised SPOT signal, Boehringer light units (BLU); mean over the file's lines of this peptide amounted to 53.7.
The same measure, in the same setting: to SDFPYDPFKVMRQN [YKR061W 225-238] belongs 40.1; to ASKPSVPPRNYFSK [YIL108W 577-590], 44.5; to APAPLDPFKTGGNN [YBL007C 849-862], 68.1.
Still for that read-out and setting: to ATRPSSPMRHKSIS [YAR019C 585-598] belongs 302; to SGFPLLPSKRGVTA [YBL095W 165-178], 22.
Still for that read-out and setting: then ARDPILPYRLVKDR [YHL040C 345-358], with 46.6; and SDFPYDPFRVMRLK [YJL139C 225-238], with 33.6; and SIIPPLPDKKVFQY [YJL036W 96-109], with 49.
Molecule AVDPENPKKLASKF [YCR023C 384-397] showed a normalised SPOT signal, Boehringer light units (BLU); mean over the file's lines of this peptide of 53.1.
Same read-out and setting: to APTPPAPSRSEKLH [YBR108W 727-740] belongs 16.8; to ANLPNRPKRGEGIN [YMR047C 1035-1048], 27.9; to ATTPAIPTKSDEAE [YGR162W 364-377], 42.2.
The same measure, in the same setting: then ASMPRVPLKIVLKD [YIL078W 68-81], with 282.

The target in a further assay is T3, Rvs167 SH3 (RV167_YEAST), P39743. The experiment in a line: SPOT array.
Molecule APLPPQPRKHDKTP [YBL105C 587-600] returned a normalised SPOT signal, Boehringer light units (BLU); mean over the file's lines of this peptide of 52.6.
Still for that read-out and setting: then ASYPLTPRRYVPED [YLR244C 90-103], with 1380.
With AQRPRGPQRGKDIK [YNL064C 104-117], the normalised SPOT signal, Boehringer light units (BLU); mean over the file's lines of this peptide came to 78.6.
Molecule AMTPFSPRKSHINN [YNL269W 98-111] had a normalised SPOT signal, Boehringer light units (BLU); mean over the file's lines of this peptide of 422.
On the same count and under the same terms, to AVLPIEPMKIKGTT [YNL140C 149-162] belongs 39; to ATVPSAPYRKQIIS [YAR002W 11-24], 145.
The same measure, in the same setting: to SDFPYDPFKVMRQN [YKR061W 225-238] belongs 11.8; to ASKPSVPPRNYFSK [YIL108W 577-590], 3860; to APAPLDPFKTGGNN [YBL007C 849-862], 47.4.
On the same count and under the same terms, then ATRPSSPMRHKSIS [YAR019C 585-598], with 1180; and SGFPLLPSKRGVTA [YBL095W 165-178], with 354; and ARDPILPYRLVKDR [YHL040C 345-358], with 437.
SDFPYDPFRVMRLK [YJL139C 225-238] displayed a normalised SPOT signal, Boehringer light units (BLU); mean over the file's lines of this peptide of 42.
The same measure, in the same setting: to SIIPPLPDKKVFQY [YJL036W 96-109] belongs 22.3; to AVDPENPKKLASKF [YCR023C 384-397], 5.3.
Still for that read-out and setting: to APTPPAPSRSEKLH [YBR108W 727-740] belongs 49.2; to ANLPNRPKRGEGIN [YMR047C 1035-1048], 39.8; to ATTPAIPTKSDEAE [YGR162W 364-377], 86.1.
On the same count and under the same terms, then ASMPRVPLKIVLKD [YIL078W 68-81], with 581.

The target in another assay is T4, Yfr024 SH3 (LSB3_YEAST), P43603. Description: SPOT array.
APLPPQPRKHDKTP [YBL105C 587-600]: the normalised SPOT signal, Boehringer light units (BLU); mean over the file's lines of this peptide came out at 1150.
Still for that read-out and setting: to ASYPLTPRRYVPED [YLR244C 90-103] belongs 6950; to AQRPRGPQRGKDIK [YNL064C 104-117], 576; to AMTPFSPRKSHINN [YNL269W 98-111], 1860.
The same measure, in the same setting: then AVLPIEPMKIKGTT [YNL140C 149-162], with 605; and ATVPSAPYRKQIIS [YAR002W 11-24], with 1890.
SDFPYDPFKVMRQN [YKR061W 225-238] had a normalised SPOT signal, Boehringer light units (BLU); mean over the file's lines of this peptide of 33.2.
Same read-out and setting: then ASKPSVPPRNYFSK [YIL108W 577-590], with 20100; and APAPLDPFKTGGNN [YBL007C 849-862], with 35.4.
The same measure, in the same setting: to ATRPSSPMRHKSIS [YAR019C 585-598] belongs 6110.
SGFPLLPSKRGVTA [YBL095W 165-178] registered a normalised SPOT signal, Boehringer light units (BLU); mean over the file's lines of this peptide of 4190.
In the case of ARDPILPYRLVKDR [YHL040C 345-358], the normalised SPOT signal, Boehringer light units (BLU); mean over the file's lines of this peptide was found to be 16800.
On the same count and under the same terms, to SDFPYDPFRVMRLK [YJL139C 225-238] belongs 231; to SIIPPLPDKKVFQY [YJL036W 96-109], 6960.
AVDPENPKKLASKF [YCR023C 384-397] displayed a normalised SPOT signal, Boehringer light units (BLU); mean over the file's lines of this peptide of 0.
The same measure, in the same setting: then APTPPAPSRSEKLH [YBR108W 727-740], with 4690; and ANLPNRPKRGEGIN [YMR047C 1035-1048], with 6370.
For the molecule ATTPAIPTKSDEAE [YGR162W 364-377], the normalised SPOT signal, Boehringer light units (BLU); mean over the file's lines of this peptide came to 166.
The same measure, in the same setting: then ASMPRVPLKIVLKD [YIL078W 68-81], with 6880.

Another assay concerns the target T5, Yhr016c SH3 (YSC84_YEAST), P32793. Description: SPOT array.
In turn, APLPPQPRKHDKTP [YBL105C 587-600] had a normalised SPOT signal, Boehringer light units (BLU); mean over the file's lines of this peptide of 372.
Still for that read-out and setting: then ASYPLTPRRYVPED [YLR244C 90-103], with 4120.
Turning to AQRPRGPQRGKDIK [YNL064C 104-117], the normalised SPOT signal, Boehringer light units (BLU); mean over the file's lines of this peptide came to 112.
AMTPFSPRKSHINN [YNL269W 98-111]: the normalised SPOT signal, Boehringer light units (BLU); mean over the file's lines of this peptide was determined as 256.
Regarding AVLPIEPMKIKGTT [YNL140C 149-162], the normalised SPOT signal, Boehringer light units (BLU); mean over the file's lines of this peptide amounted to 191.
ATVPSAPYRKQIIS [YAR002W 11-24] gave a normalised SPOT signal, Boehringer light units (BLU); mean over the file's lines of this peptide of 718.
On the same count and under the same terms, to SDFPYDPFKVMRQN [YKR061W 225-238] belongs 119; to ASKPSVPPRNYFSK [YIL108W 577-590], 9380; to APAPLDPFKTGGNN [YBL007C 849-862], 22.8.
Still for that read-out and setting: to ATRPSSPMRHKSIS [YAR019C 585-598] belongs 1730.
Regarding SGFPLLPSKRGVTA [YBL095W 165-178], the normalised SPOT signal, Boehringer light units (BLU); mean over the file's lines of this peptide is 314.
On the same count and under the same terms, then ARDPILPYRLVKDR [YHL040C 345-358], with 4220; and SDFPYDPFRVMRLK [YJL139C 225-238], with 245; and SIIPPLPDKKVFQY [YJL036W 96-109], with 174.
On the same count and under the same terms, then AVDPENPKKLASKF [YCR023C 384-397], with 42.7.
Same read-out and setting: to APTPPAPSRSEKLH [YBR108W 727-740] belongs 448; to ANLPNRPKRGEGIN [YMR047C 1035-1048], 1230.
On to ATTPAIPTKSDEAE [YGR162W 364-377], for which the normalised SPOT signal, Boehringer light units (BLU); mean over the file's lines of this peptide was determined as 0.
Molecule ASMPRVPLKIVLKD [YIL078W 68-81] registered a normalised SPOT signal, Boehringer light units (BLU); mean over the file's lines of this peptide of 690.
